Data from paper PMC6156662 (Proceedings of the National Academy of Sciences of the …, 2018).
One block for each molecule: values may come before it.

What was measured:
HCT116^δCHMP4C cells [1] = test: Cell growth assay with aphidicolin; type: cell-based; details: 30 nM aphidicolin
[2] = tested on: cells stably expressing HA-CHMP4C constructs, with siRNA; test: Abscission checkpoint activation by drug; type: cell-based
[3] = tested on: HCT116^WT and HCT116^δCHMP4C cells; test: Cell-cycle arrest by flow cytometry, mitomycin C; type: cell-based; details: 200 ng/mL mitomycin C, overnight
[4] = tested on: HCT116^WT and HCT116^δCHMP4C cells; test: Mitotic arrest by flow cytometry and Western blotting, nocodazole; type: cell-based; details: 50 ng/mL nocodazole
HCT116 cells [5] = test: Anaphase chromosome missegregation; type: cell-based; details: low-dose (0.1 μM) reversine, or p53 depletion by shRNA
HCT116^δCHMP4C cells [6] = test: Karyotyping, extreme aneuploidy in HCT116^δCHMP4C; type: cell-based; details: 0.1 μM reversine; for protection against reversine-induced aneuploidy: reexpression in HCT116^δCHMP4C
HCT116^δCHMP4C cells [7] = test: Cell growth assay with reversine, HCT116^δCHMP4C; type: cell-based; details: 0.1 μM reversine
HCT116^WT cells [8] = details: 0.1 μM reversine, 48 h; <37 or >48 chromosomes; DMSO 1%
HCT116 cells [9] = details: 0.1 μM reversine, cells with defective abscission checkpoint
HCT116^WT cells [10] = details: 0.1 μM reversine, 7 d
full-length ALIX = test: Yeast two-hybrid β-galactosidase assay with ALIX; details: full-length CHMP4C, mean ± SD, n = 3
[11] = tested on: HeLa mCherry-tubulin cells; test: Midbody abscission time, live-cell imaging; details: siCHMP4C background
midbody of HeLa cells = test: HA-CHMP4C midbody recruitment; details: with or without nucleoporin depletion
[12] = tested on: HeLa cells stably expressing YFP-Lap2β; test: Resolution time of YFP-Lap2β chromatin bridges, live-cell imaging; details: siCHMP4C, endogenous CHMP4C 685 min
HeLa cells = test: Abscission checkpoint activity; details: siCHMP4C; Nup153/Nup50 partial depletion; midbody-arrested cells
HCT116^δCHMP4C cells [13] = test: DNA damage: 53BP1 foci; type: cell-based; details: reexpression in HCT116^δCHMP4C
HCT116 cells [14] = test: Cell growth assay after p53 depletion; type: cell-based; details: p53 shRNA
[15] = construct expressed in HCT116^δCHMP4C

Molecule: C[C@@]1(CO)[C@H](O)CC[C@@]2(C)[C@H]1CC[C@H]1C[C@@H]3C[C@@]12CC[C@]3(O)CO [aphidicolin, reference compound]
effect on proliferation (HCT116^δCHMP4C cells [1]; continuous): reduced the proliferation of HCT116^δCHMP4C cells nearly twofold compared with HCT116^WT cells
activation of the abscission checkpoint ([2]; 30 nM aphidicolin, 24 h (replication stress)): triggers the abscission checkpoint in a CHMP4C-dependent manner

Molecule: CO[C@@]12[C@H](COC(N)=O)C3=C(C(=O)C(C)=C(N)C3=O)N1C[C@@H]1N[C@@H]12 [mitomycin C]
G2/M cell-cycle arrest [3]: normal in HCT116^δCHMP4C cells

Molecule: COC(=O)Nc1nc2cc(C(=O)c3cccs3)ccc2[nH]1 [nocodazole]
mitotic / G2/M arrest [4]: did not observe a failure of HCT116^δCHMP4C cells to arrest

Molecule: c1nc2nc(Nc3ccc(N4CCOCC4)cc3)nc(NC3CCCCC3)c2[nH]1 [reversine]
anaphase chromosome missegregation (HCT116 cells [5]): doubled the frequency of anaphase chromosome missegregation
cells with extreme aneuploidy (HCT116^δCHMP4C cells [6]; 48 h, <37 or >48 chromosomes, DMSO 4%): 23%
reduction of cell growth (HCT116^δCHMP4C cells [7]; over 7-d period): at least 70%
activation of the abscission checkpoint ([2]; 0.1 μM reversine, 24 h): activated the abscission checkpoint in a CHMP4C-dependent fashion
cells with extreme aneuploidy (HCT116^WT cells [8]): 7%
micronuclei (HCT116 cells [9]): did display a higher proportion of micronuclei
multinucleation (HCT116 cells [9]): did not induce a multinucleation phenotype
reduction of cell growth (HCT116^WT cells [10]): reduced HCT116^WT cell growth only modestly

B1: A232T full-length CHMP4C (protein, UniProt Q96CF2 1-233, looked up, variant A232T)
chain: MSKLGKFFKGGGSSKSRAAPSPQEALVRLRETEEMLGKKQEYLENRIQREIALAKKHGTQNKRAALQALKRKKRFEKQLTQIDGTLSTIEFQREALENSHTNTEVLRNMGFAAKAMKSVHENMDLNKIDDLMQEITEQQDIAQEISEAFSQRVGFGDDFDEDELMAELEELEQEELNKKMTNIRLPNVPSSSLPAQPNRKPGMSSTARRSRAASSQRAEEEDDDIKQLAAWTT
modifications: full-length
interaction with ALIX (full-length ALIX): significantly reduced the interaction between full-length CHMP4C and ALIX

B2: HA-CHMP4C^T232: HA-CHMP4C full length siRNA-resistant T232 rs35094336 mutant (protein, UniProt Q96CF2 1-233, looked up, variant A232T)
chain: MSKLGKFFKGGGSSKSRAAPSPQEALVRLRETEEMLGKKQEYLENRIQREIALAKKHGTQNKRAALQALKRKKRFEKQLTQIDGTLSTIEFQREALENSHTNTEVLRNMGFAAKAMKSVHENMDLNKIDDLMQEITEQQDIAQEISEAFSQRVGFGDDFDEDELMAELEELEQEELNKKMTNIRLPNVPSSSLPAQPNRKPGMSSTARRSRAASSQRAEEEDDDIKQLAAWTT
modifications: full-length HA tag
protection against reversine-induced aneuploidy (HCT116^δCHMP4C cells [6]): but not HA-CHMP4C^T232, protected against reversine-induced increases in aneuploidy
abscission rate under normal growth conditions [11]: proceeded through abscission more rapidly under normal growth conditions
recruitment to midbody (midbody of HeLa cells): recruited to the midbody at normal levels
chromatin bridge resolution time, median [12]: 200 min
abscission checkpoint activity (HeLa cells): does not support the abscission checkpoint

interaction with ALIX (full-length ALIX): complete loss of ALIX binding
B3: L228A with W231A full-length CHMP4C (protein, UniProt Q96CF2 1-233, looked up, variant L228A W231A)
chain: MSKLGKFFKGGGSSKSRAAPSPQEALVRLRETEEMLGKKQEYLENRIQREIALAKKHGTQNKRAALQALKRKKRFEKQLTQIDGTLSTIEFQREALENSHTNTEVLRNMGFAAKAMKSVHENMDLNKIDDLMQEITEQQDIAQEISEAFSQRVGFGDDFDEDELMAELEELEQEELNKKMTNIRLPNVPSSSLPAQPNRKPGMSSTARRSRAASSQRAEEEDDDIKQAAAAAT
modifications: full-length

B4: HA-CHMP4C^A232: HA-CHMP4C full length siRNA-resistant wild type, reference protein (protein, UniProt Q96CF2 1-233, looked up)
chain: MSKLGKFFKGGGSSKSRAAPSPQEALVRLRETEEMLGKKQEYLENRIQREIALAKKHGTQNKRAALQALKRKKRFEKQLTQIDGTLSTIEFQREALENSHTNTEVLRNMGFAAKAMKSVHENMDLNKIDDLMQEITEQQDIAQEISEAFSQRVGFGDDFDEDELMAELEELEQEELNKKMTNIRLPNVPSSSLPAQPNRKPGMSSTARRSRAASSQRAEEEDDDIKQLAAWAT
modifications: full-length HA tag
DNA damage, 53BP1 foci (HCT116^δCHMP4C cells [13]): reduced to control levels upon reexpression of HA-CHMP4C^A232
rescue of growth defect under aphidicolin (HCT116^δCHMP4C cells [1]; [15]): rescued by expression of HA-CHMP4C^A232
protection against reversine-induced aneuploidy (HCT116^δCHMP4C cells [6]): protected against reversine-induced increases in aneuploidy
restoration of growth in presence of reversine (HCT116^δCHMP4C cells [7]; [15]): restored by the expression of HA-CHMP4C^A232
growth after p53 depletion (HCT116 cells [14]): reversed upon reexpression of CHMP4C^A232
recruitment to midbody (midbody of HeLa cells): recruited to the midbody at normal levels
chromatin bridge resolution time, median [12]: 800 min
abscission checkpoint activity (HeLa cells): checkpoint activity was rescued in cells that expressed HA-CHMP4C^A232
